Reference: patent publication US8951961B2, “Structural and mechanistic basis for novel compound biosynthesis using 4-electron hexose oxidase” (Academia Sinica, priority 2009, dated 2015)
Substitutions are numbered along the chain they refer to. In names and notes the source's numbering stands. In brackets after ≈: the same amount, converted by molar mass.

B1: W399A (protein)
chain: MTGGTGADAASAGASSTRPELRGERCLPPAGPVKVTPDDPRYLNLKLRGANSRFNGEPDYIHLVGSTQQVADAVEETVRTGKRVAVRSGGHCFEDFVDNPDVKVIIDMSLLTEIAYDPSMNAFLIEPGNTLSEVYEKLYLGWNVTIPGGVCGGVGVGGHICGGGYGPLSRQFGSVVDYLYAVEVVVVNKQGKARVIVATRERDDPHHDLWWAHTGGGGGNFGVVTKYWMRVPEDVGRNPERLLPKPPATLLTSTVTFDWAGMTEAAFSRLLRNHGEWYERNSGPDSPYTGLWSQLMIGNEVPGMGESGFMMPIQVDATRPDARRLLDAHIEAVIDGVPPAEVPEPIEQRWLASTPGRGGRGPASKTKAGYLRKRLTDRQIQAVYENMTHMDGIDYGAVALIGYGGKVNTVDPAATALPQRDAILKVNYITGWANPGNEAKHLTWVRKLYADVYAETGGVPVPNDVSDGAYINYPDSDLADPGLNTSGVPWHDLYYKGNHPRLRKVKAAYDPRNHFHHALSIRP
B2: S364R (protein)
chain: B1 chain with S364R, A399W
B3: H91A/C151A (protein)
chain: B1 chain with H91A, C151A, A399W
B4: Y453F (protein)
chain: B1 chain with A399W, Y453F
B5: Y428F (protein)
chain: B1 chain with A399W, Y428F
B6: T366E (protein)
chain: B1 chain with T366E, A399W
B7: R360L/T366A (protein)
chain: B1 chain with R360L, T366A, A399W
B8: T366A (protein)
chain: B1 chain with T366A, A399W
B9: Y428F/Y453F (protein)
chain: B1 chain with A399W, Y428F, Y453F
B10: R360E/T366E (protein)
chain: B1 chain with R360E, T366E, A399W
B11: I401W (protein)
chain: B1 chain with A399W, I401W
B12: C26A (protein)
chain: B1 chain with C26A, A399W
B13: R360L (protein)
chain: B1 chain with R360L, A399W
B14: R360L/T366E (protein)
chain: B1 chain with R360L, T366E, A399W
B15: C151A (protein)
chain: B1 chain with C151A, A399W
B16: I401A (protein)
chain: B1 chain with A399W, I401A
B17: S364K (protein)
chain: B1 chain with S364K, A399W
B18: H91A (protein)
chain: B1 chain with H91A, A399W
B19: W399F (protein)
chain: B1 chain with A399F
B20: Y470F (protein)
chain: B1 chain with A399W, Y470F
B21: Y473F (protein)
chain: B1 chain with A399W, Y473F
B22: Y165F (protein)
chain: B1 chain with Y165F, A399W
B23: Y403F (protein)
chain: B1 chain with A399W, Y403F
B24: C92A (protein)
chain: B1 chain with C92A, A399W
B25: R41A/N44A (protein)
chain: B1 chain with R41A, N44A, A399W
B26: R360E (protein)
chain: B1 chain with R360E, A399W
B27: T366L (protein)
chain: B1 chain with T366L, A399W
B28: Y370F (protein)
chain: B1 chain with Y370F, A399W
B29: N44A (protein)
chain: B1 chain with N44A, A399W
B30: C161A (protein)
chain: B1 chain with C161A, A399W
B31: Y370F/Y403F (protein)
chain: B1 chain with Y370F, A399W, Y403F
B32: Y165W (protein)
chain: B1 chain with Y165W, A399W
B33: Y165F/Y473F (protein)
chain: B1 chain with Y165F, A399W, Y473F
B34: R41A (protein)
chain: B1 chain with R41A, A399W

Assays:
E. faecalis ATCC 51299 = assay: Minimum Inhibition Concentrations (MICs) Test; type: cell-based, Enterococcus Faecalis
E. faecalis ATCC 51559 = assay: Minimum Inhibition Concentrations (MICs) Test; type: cell-based, Enterococcus Faecalis
E. faecalis ATCC 700221 = assay: Minimum Inhibition Concentrations (MICs) Test; type: cell-based, Enterococcus Faecalis
S. Aureus ATCC 29213 = assay: Minimum Inhibition Concentrations (MICs) Test; type: cell-based, Staphylococcus Aureus
E. faecalis (ATCC 51559) = assay: In vivo animal study, sepsis in mice; set-up: species or system ICR female mice; details: 10 mg/kg/dose i.v. twice a day, day 1 to day 3
Description: 12 ICR female mice with an average body weight of 27 g to 30 g were used in this experiment. Mice had free access to water and food at all time. Sepsis was induced in mice by intravenous (i.v.) injection of […] cfu/mouse of E. faecalis (ATCC 51559) on day 0. The mice were randomized into the following four treatment groups at the start of the experiment:
Each mouse received 10 mg/kg/dose of the medication by intravenous route, twice a day from day 1 to day 3, for a total of 6 doses. Mice were anesthetized and blood was taken from the orbital sinus on day 1, day 2, and day 3. The blood sample was diluted with PBS, plated on Brain Heart infusion agar (BHI agar; Difico, Detroit, Mich., USA) and cultured for colony formation unit.
Data were expressed as mean±SD and the statistical analysis was performed using SigmaStat®. Differences were considered to be significant if the P value was <0.05.

E. faecalis ATCC 33186 = assay: Minimum Inhibition Concentrations (MICs) Test; type: cell-based, Enterococcus Faecalis
S. Aureus ATCC 700699 = assay: Minimum Inhibition Concentrations (MICs) Test; type: cell-based, Staphylococcus Aureus
E. faecalis ATCC 29302 = assay: Minimum Inhibition Concentrations (MICs) Test; type: cell-based, Enterococcus Faecalis
Dbv29 = assay: Relative enzymatic activities of Dbv29 mutants; type: biochemical, Nonomuraea sp. ATCC39727; details: for Relative activity: relative to WT

Row | Molecule | Relative activity (Dbv29) | other results
1 | CN[C@H](CC(C)C)C(=O)N[C@H]1C(=O)N[C@@H](CC(N)=O)C(=O)N[C@H]2C(=O)N[C@H]3C(=O)N[C@H](C(=O)N[C@H](C(=O)O)c4cc(O)cc(O)c4-c4cc3ccc4O)[C@H](O)c3ccc(c(Cl)c3)Oc3cc2cc(c3O[C@@H]2O[C@H](CO)[C@@H](O)[C@H](O)[C@H]2O[C@H]2C[C@](C)(N)[C@H](O)[C@H](C)O2)Oc2ccc(cc2Cl)[C@H]1O [Compound 1, vancomycin] | – | MIC (E. faecalis ATCC 51299; Enterococcus faecalis, ATCC 51299 / VRE): > 64 µg/mL; MIC (E. faecalis ATCC 51559; Enterococcus faecalis, ATCC 51559 / VRE): > 32 µg/mL; MIC (E. faecalis ATCC 700221; Enterococcus faecalis, ATCC700221): > 64 µg/mL; MIC (S. Aureus ATCC 29213; Staphylococcus aureus, ATCC29213): 1 µg/mL (≈ 0.69 µM); whole blood bacterial counts over the 3-day period (E. faecalis (ATCC 51559)): suppressed; MIC (E. faecalis ATCC 33186; Enterococcus faecalis, ATCC33186): 4 µg/mL (≈ 2.76 µM); MIC (S. Aureus ATCC 700699; Staphylococcus aureus, ATCC700699): 16 µg/mL (≈ 11 µM); MIC (E. faecalis ATCC 29302; Enterococcus faecalis, ATCC29302): 1 µg/mL (≈ 0.69 µM)
2 | Teicoplanin [Compound 4] | – | MIC (E. faecalis ATCC 51299; E. faecalis ATCC 51299, low level VRE): 0.5 µg/mL; MIC (E. faecalis ATCC 51559; E. faecalis ATCC 51559, multidrug-resistant strain (VRE)): >32 µg/mL; MIC (E. faecalis ATCC 700221; E. faecalis ATCC 700221, resistant to vancomycin): >32 µg/mL; MIC (S. Aureus ATCC 29213; S. Aureus ATCC 29213, methacillin-sensitive strain): 0.5 µg/mL; whole blood bacterial counts over the 3-day period (E. faecalis (ATCC 51559)): suppressed; MIC (E. faecalis ATCC 33186; E. faecalis ATCC 33186, antibiotics sensitive strain): 0.25 µg/mL; MIC (S. Aureus ATCC 700699; S. Aureus ATCC 700699, resistant to methacillin, reduced vancomycin susceptibility): 8 µg/mL; MIC (E. faecalis ATCC 29302; E. faecalis ATCC 29302, standard strain, no growth in duplicate): 0.125 µg/mL
3 | B1 | – | catalytic activity (Dbv29): no product was produced
4 | B2 | 0.08 | –
5 | B3 | 0.05 | activity relative to WT (Dbv29): 5%
6 | B4 | 0.82 | –
7 | B5 | 1.00 | –
8 | B6 | 0.05 | activity relative to WT (Dbv29): 5%
9 | B7 | 0.03 | –
10 | B8 | 0.11 | activity relative to WT (Dbv29): 11%
11 | B9 | 1.08 | –
12 | B10 | 0.03 | –
13 | B11 | 0.02 | –
14 | B12 | 1.11 | –
15 | B13 | 0.23 | –
16 | B14 | 0.01 | –
17 | B15 | 0.23 | activity relative to WT (Dbv29): 23%
18 | B16 | 0.09 | –

Row | Molecule | Relative activity (Dbv29) | other results
19 | B17 | 0.04 | –
20 | B18 | 0.11 | activity relative to WT (Dbv29): 11%
21 | B19 | 0.16 | activity relative to WT (Dbv29): 15%
22 | B20 | 0.21 | –
23 | B21 | 0.23 | –
24 | B22 | 0.70 | –
25 | B23 | 0.65 | –
26 | B24 | 0.95 | –
27 | B25 | 0.59 | –
28 | B26 | 0.76 | –
29 | B27 | 0.13 | –
30 | B28 | 0.10 | –
31 | B29 | 0.87 | –
32 | B30 | 0.84 | –
33 | B31 | 0.05 | –
34 | B32 | 0.03 | –
35 | B33 | – | catalytic activity (Dbv29): total loss of catalytic activity
36 | B34 | 0.72 | –
